Assay results: patent US10156559B2, “Lipocalin fusion partners” (Fred Hutchinson Cancer Research Center, priority 2012, dated 2018)

B1: Adv2: cytoplasmic viral protein Adv2 expressed as a Scn fusion and cleaved from Scn (protein, UniProt P68978 18-159, looked up)
Early E3 18.5 kDa glycoprotein: AKKVEFKEPACNVTFKSEANECTTLIKCTTEHEKLIIRHKDKIGKYAVYAIWQPGDTNDYNVTVFQGENRKTFMYKFPFYEMCDITMYMSKQYKLWPPQKCLENTGTFCSTALLITALALVCTLLYLKYKSRRSFIDEKKMP
modifications: expressed as Scn fusion, cleaved
B2: HMOX1: cytoplasmic enzyme, HMOX1, expressed as a Scn fusion and cleaved from Scn (protein, UniProt P09601 1-288, looked up)
Heme oxygenase 1: MERPQPDSMPQDLSEALKEATKEVHTQAENAEFMRNFQKGQVTRDGFKLVMASLYHIYVALEEEIERNKESPVFAPVYFPEELHRKAALEQDLAFWYGPRWQEVIPYTPAMQRYVKRLHEVGRTEPELLVAHAYTRYLGDLSGGQVLKKIAQKALDLPSSGEGLAFFTFPNIASATKFKQLYRSRMNSLEMTPAVRQRVIEEAKTAFLLNIQLFEELQELLTHDTKDQSPSRAPGLRQRASNKVQDSAPVETPRGKPPLNTRSQAPLLRWVLTLSFLVATVAVGLYAM
modifications: expressed as Scn fusion, cleaved

Experiment: SDS PAGE analysis of Scn fusion protein before and after cleavage
Assay type: physicochemical
Details: fusion protein cleaved from Scn, expressed in mammalian cell culture
From the text: The cloned knottin or library was cotransfected into HEK293 cells and media was collected as described (“Daedalus: A Robust, Turnkey Platform for Rapid Production of Decigram Quantities of Active Recombinant Proteins in Human Cell Lines Using Novel Lentiviral Vectors.” Bandaranayake A. D., et al., Nucleic Acids Res. (2011) 39(21):e143). Fusion protein was isolated using nickel IMAC and cleaved with recombinant TEV protease. Excess siderocalin was removed via size exclusion chromatography, a process which also allowed the buffer to be switched to 10 mM ammonium formate. The knottin containing fractions were then lyophilized.
(§1) FIG. 19 depicts the expression of a Scn fusion with a cytoplasmic viral protein Adv2 and the corresponding SDS PAGE analysis according to one aspect of the present disclosure. […] Additionally this fusion protein has further utility because it can be used to raise antibodies against the viral antigen in rats, mice or rabbits using the corresponding Scn ortholog.
as §1, with “21” for “19”, “knottin protein, Imperatoxin,” for “cytoplasmic viral protein Adv2”, “Additionally,” for “Additionally”

Molecule	stability of the protein after separation from Scn
B1	stable even after separation from Scn
B2	stable even after separation from Scn
